Laboratory results published in patent US20230406885A1, “CYCLIC PEPTIDES FOR TRAPPING INTERLEUKIN-1 BETA” (MERCK SHARP & DOHME LLC, priority 2022, published 2023).
*1 amine or outer side, *2 acyl side, *3 side chain or, on linkers, in order; H or OH if unused. [ ]: non-standard residue; d: D form. 3AzaPhe4AcPip = (S)-3-(6-(4-acetylpiperazin-1-yl)pyridin-3-yl)-2-aminopropanoic acid, CC(=O)N1CCN(c2ccc(C[C@H](N[*:1])C(=O)[*:2])cn2)CC1; Pro(trans-4-NH2) = O=C([C@@H]1C[C@@H](N[*:3])CN1[*:1])[*:2]; Bip(4'-COOH) = N[C@@H](Cc1ccc(-c2ccc(C(=O)O)cc2)cc1)C(=O)O; 1Nal(3S-Me) = C[C@@H](c1cccc2ccccc12)[C@H](N)C(=O)O; Phe(4-COOH) = N[C@@H](Cc1ccc(C(=O)O)cc1)C(=O)O; h3Pal(5-CN) = N#Cc1cncc(CC[C@H](N)C(=O)O)c1; 1Nal = N[C@@H](Cc1cccc2ccccc12)C(=O)O; Orn = NCCC[C@H](N)C(=O)O; dNMeA = CN[C@H](C)C(=O)O; Dap = NC[C@H](N)C(=O)O; Aib = CC(C)(N)C(=O)O

B1: SEQ ID NO: 19 (peptide)
peptide: cyclo([Bip(4'-COOH)]W[Phe(4-COOH)]G[Pro(trans-4-NH2)][1Nal(3S-Me)]D[dNMeA]G[Bip(4'-COOH)][1Nal]L[Aib]G)
SMILES: CC(C)C[C@@H]1NC(=O)[C@H](Cc2cccc3ccccc23)NC(=O)[C@H](Cc2ccc(-c3ccc(C(=O)O)cc3)cc2)NC(=O)CNC(=O)[C@@H](C)N(C)C(=O)[C@H](CC(=O)O)NC(=O)[C@H]([C@@H](C)c2cccc3ccccc23)NC(=O)[C@@H]2C[C@@H](N)CN2C(=O)CNC(=O)[C@H](Cc2ccc(C(=O)O)cc2)NC(=O)[C@H](Cc2c[nH]c3ccccc23)NC(=O)[C@H](Cc2ccc(-c3ccc(C(=O)O)cc3)cc2)NC(=O)CNC(=O)C(C)(C)NC1=O
B2: SEQ ID NO: 2 (peptide)
peptide: cyclo([3AzaPhe4AcPip]W[Phe(4-COOH)]G[Pro(trans-4-NH2)][1Nal(3S-Me)]D[dNMeA]G[Bip(4'-COOH)]KL[dA][h3Pal(5-CN)])
SMILES: CC(=O)N1CCN(c2ccc(C[C@@H]3NC(=O)[C@H](CCc4cncc(C#N)c4)NC(=O)[C@@H](C)NC(=O)[C@H](CC(C)C)NC(=O)[C@H](CCCCN)NC(=O)[C@H](Cc4ccc(-c5ccc(C(=O)O)cc5)cc4)NC(=O)CNC(=O)[C@@H](C)N(C)C(=O)[C@H](CC(=O)O)NC(=O)[C@H]([C@@H](C)c4cccc5ccccc45)NC(=O)[C@@H]4C[C@@H](N)CN4C(=O)CNC(=O)[C@H](Cc4ccc(C(=O)O)cc4)NC(=O)[C@H](Cc4c[nH]c5ccccc45)NC3=O)cn2)CC1
B3: SEQ ID NO: 17 (peptide)
peptide: cyclo([Bip(4'-COOH)]W[Phe(4-COOH)]G[Pro(trans-4-NH2)][1Nal(3S-Me)]D[dNMeA]G[Bip(4'-COOH)][1Nal][Dap][Aib]G)
SMILES: C[C@@H]1C(=O)NCC(=O)N[C@@H](Cc2ccc(-c3ccc(C(=O)O)cc3)cc2)C(=O)N[C@@H](Cc2cccc3ccccc23)C(=O)N[C@@H](CN)C(=O)NC(C)(C)C(=O)NCC(=O)N[C@@H](Cc2ccc(-c3ccc(C(=O)O)cc3)cc2)C(=O)N[C@@H](Cc2c[nH]c3ccccc23)C(=O)N[C@@H](Cc2ccc(C(=O)O)cc2)C(=O)NCC(=O)N2C[C@H](N)C[C@H]2C(=O)N[C@@H]([C@@H](C)c2cccc3ccccc23)C(=O)N[C@@H](CC(=O)O)C(=O)N1C
B4: SEQ ID NO: 20 (peptide)
peptide: cyclo([Bip(4'-COOH)]W[Phe(4-COOH)]G[Pro(trans-4-NH2)][1Nal(3S-Me)]D[dNMeA]G[Bip(4'-COOH)][1Nal][Orn][Aib]G)
SMILES: C[C@@H]1C(=O)NCC(=O)N[C@@H](Cc2ccc(-c3ccc(C(=O)O)cc3)cc2)C(=O)N[C@@H](Cc2cccc3ccccc23)C(=O)N[C@@H](CCCN)C(=O)NC(C)(C)C(=O)NCC(=O)N[C@@H](Cc2ccc(-c3ccc(C(=O)O)cc3)cc2)C(=O)N[C@@H](Cc2c[nH]c3ccccc23)C(=O)N[C@@H](Cc2ccc(C(=O)O)cc2)C(=O)NCC(=O)N2C[C@H](N)C[C@H]2C(=O)N[C@@H]([C@@H](C)c2cccc3ccccc23)C(=O)N[C@@H](CC(=O)O)C(=O)N1C
B5: SEQ ID NO: 18 (peptide)
peptide: cyclo([Bip(4'-COOH)]W[Phe(4-COOH)]G[Pro(trans-4-NH2)][1Nal(3S-Me)]D[dNMeA]G[Bip(4'-COOH)][1Nal][Dap][Aib][h3Pal(5-CN)])
SMILES: C[C@@H]1C(=O)NCC(=O)N[C@@H](Cc2ccc(-c3ccc(C(=O)O)cc3)cc2)C(=O)N[C@@H](Cc2cccc3ccccc23)C(=O)N[C@@H](CN)C(=O)NC(C)(C)C(=O)N[C@@H](CCc2cncc(C#N)c2)C(=O)N[C@@H](Cc2ccc(-c3ccc(C(=O)O)cc3)cc2)C(=O)N[C@@H](Cc2c[nH]c3ccccc23)C(=O)N[C@@H](Cc2ccc(C(=O)O)cc2)C(=O)NCC(=O)N2C[C@H](N)C[C@H]2C(=O)N[C@@H]([C@@H](C)c2cccc3ccccc23)C(=O)N[C@@H](CC(=O)O)C(=O)N1C

The binders below were run against Recombinant human IL-1β (BioLegend 579404) (human, UniProt P01584 117-269) (assay: cell-based or functional assay).

MRC5 IC50	Binder
0.118 nM	B1
0.0217 nM	B2
0.222 nM	B3
0.44 nM	B4
0.0885 nM	B5
